Series [1] concerns the target T1, mouse CD36 (Mus musculus, UniProt Q08857).
T1 construct: expressed in transfected cells; host or cells: HEK293 (called HEK293T)
Kind of series: Binding of AIM to CD36-overexpressing HEK293 cells (confocal microscopy). To be noted: HEK293 cells overexpressing FLAG-tagged mouse CD36, cultured with mouse AIM for 3 hours. The procedure: CD36 is a twice-transmembrane-type molecule, is expressed on adipocytes and macrophages, and is involved in intracellular internalization of many molecules including fatty acids, LDL, and the like. Thus, HEK293 cells in which mouse CD36 fused with a FLAG-tag at its C terminus was overexpressed were produced, and the cells were cultured with mouse AIM for 3 hours. Subsequently, the cells were collected, stained using an anti-AIM antibody and an anti-CD36 antibody, and observed under a confocal microscope.

Series [2] has as its system 3T3-L1 preadipocytes. As to the kind of experiment: Differentiation of 3T3-L1 preadipocytes into mature adipocytes, oil-red-o staining. Format: cell-based, mouse. To be noted: AIM concentration reduced to 1 μg/mL and 0.1 μg/mL; data not shown.
Series [3] concerns AIM-/- macrophages. To be noted: AIM-/- macrophages loaded with recombinant AIM molecules; Document 1; cited from earlier work.
The test system of series [4] is 3T3-L1 cells. Kind of series: Expression of genes associated with adipocyte differentiation, quantitative RT-PCR. Format: cell-based. As to conditions: mouse AIM. On the procedure: The cells cultured in the above-mentioned five schedules (a) to (e) in Examples 2 and 3 above were collected on the 10th day (day 12) after the initiation of the stimuli for differentiation induction, and the expression of genes associated with adipose differentiation was analyzed using quantitative RT-PCR (QPCR).

In series [5] the test system is mature adipocytes (differentiated 3T3-L1 cells). As to the kind of experiment: Induction of lipolysis in mature 3T3-L1 adipocytes (lipid droplets, glycerol and free fatty acid efflux). Format: cell-based, mouse. The procedure: The effect of AIM on mature adipocytes was examined.
Then, the cells on the 10th day (day 12) after the initiation of the stimuli for differentiation induction were stained with oil-red-o. The number of cells having lipid droplets was counted. Further, the diameter of lipid droplets was measured in the cells having lipid droplets. For comparison, the number of the cells was counted and the diameter of lipid droplets was measured for the cells cultured in the above-mentioned schedules (a) and (d).
Further, the supernatant of the culture medium after the cells were cultured while loading AIM according to the schedule (e) was collected, and amounts of glycerol and free fatty acid (FFA) contained in the supernatant were measured by ELISA. For the comparison, the amounts of glycerol and free fatty acid in the culture supernatant obtained according to the schedule (a) were also measured.
In order to avoid adsorption of free fatty acid to albumin contained in the culture medium, the culture medium supplemented with 10% FBS (fetal bovine serum) was exchanged to a serum-free culture medium on the 10th day (day 12) after the initiation of the differentiation induction, further the cells were cultured in the serum-free culture medium for 6 hours, and subsequently the amounts of glycerol and free fatty acid contained in the supernatant of the serum-free culture medium were measured.
FIG. 7A and FIG. 7B illustrate the evaluation results of the number (per 10^4 μm^2) of cells having lipid droplets (Droplet (+) cells) and the relative diameter of lipid droplets (%) obtained according to the schedules (a), (d), and (e) (Exp. a, d, and e), respectively. The relative diameter of lipid droplets illustrated in FIG. 7B was calculated by defining the diameter of lipid droplets in the cells obtained according to the schedule (a) without AIM loading as 100%. FIG. 8A and FIG. 8B illustrate the concentration of glycerol (Glycerol Efflux, mM) and the concentration of free fatty acid (FFA Efflux, ×10 mM) in the culture medium obtained according to the schedules (a) and (e) (Exp. a and e), respectively.
In addition, FIG. 13A and FIG. 13B illustrate the results of measuring the glycerol concentration (glycerol efflux, mM) and the free fatty acid concentration (FFA efflux, ×10 mM) in the culture medium on the 10th day (day 12) after the initiation of the differentiation induction in the case of loading no AIM according to the schedule (a) (None), the case of loading AIM according to the schedule (f) (AIM), and the case of loading the FAS inhibitor according to the schedule (f) (C75), respectively.

The test system of series [6] is 3T3-L1 preadipocytes. As to the kind of experiment: Differentiation of 3T3-L1 preadipocytes into mature adipocytes, oil-red-o staining. Format: cell-based, mouse. The procedure: In order to examine how AIM produced by the macrophages infiltrating the adipose tissues works on surrounding adipocytes, an experiment in which AIM was loaded during a culture process of differentiating 3T3-L1 preadipocytes into the mature adipocytes was performed.
A recombinant mouse AIM protein and a recombinant human AIM protein were used as AIM. Those recombinant AIM proteins were prepared by culturing human-derived HEK293T cells transfected with a vector expressing mouse AIM or human AIM and isolating and purifying the protein from its culture supernatant. The same recombinant AIM proteins were also used as AIM in other examples shown below. AIM was loaded by adding AIM at a concentration of 5 μg/mL to the culture medium.
Differentiation induction (Induction) of the 3T3-L1 cells was initiated by first culturing the 3T3-L1 cells for 4 days (day −2 to day 2) to proliferate the cells (Cell proliferation) and subsequently culturing the cells in a culture medium containing insulin, dexamethasone (DEX), and isobutylmethylxanthine (IBMX) for 2 days (day 2 to day 4). The differentiation induction was further continued by culturing the cells in a culture medium containing insulin for 2 days (day 4 to day 6).
After the period of the differentiation induction (day 2 to day 6), the culture was continued in a culture medium not containing those differentiation-inducing factors. Then, the cells on the 10th day (day 12) after the initiation of the stimuli for differentiation induction were stained with oil-red-o, and the differentiation of the 3T3-L1 cells to mature adipocytes was observed.
In addition, using a FAS inhibitor (C75) in place of AIM, the FAS inhibitor at a concentration of 25 μM was loaded according to the schedules (d) and (f), and as was the case with the above-mentioned AIM, the cells were collected on the 2nd day (day 4: schedule (d)) and 10th day (day 12: schedule (f)) after the initiation of the differentiation induction, and the enzyme activity of FAS was measured.
FIG. 12A and FIG. 12B show the results of staining the cells with oil-red-o and analyzing the gene expression by RT-PCR on the 2nd day (day 4) after the initiation of the differentiation induction in the case of loading no AIM according to the schedule (a) (None), the case of loading AIM according to the schedule (d) (AIM (5 μg/mL)), and the case of loading the FAS inhibitor according to the schedule (d) (C75 (25 μM)), respectively.

Where [7] appears, read: schedule (d): day 2 to day 4, cells collected day 12.
Where [8] appears, read: mouse AIM, schedule (e), compared with schedule (a).

Entries after “also recorded” stand apart in the source; their conditions may differ.

T1 sequence (Q08857 whole entry): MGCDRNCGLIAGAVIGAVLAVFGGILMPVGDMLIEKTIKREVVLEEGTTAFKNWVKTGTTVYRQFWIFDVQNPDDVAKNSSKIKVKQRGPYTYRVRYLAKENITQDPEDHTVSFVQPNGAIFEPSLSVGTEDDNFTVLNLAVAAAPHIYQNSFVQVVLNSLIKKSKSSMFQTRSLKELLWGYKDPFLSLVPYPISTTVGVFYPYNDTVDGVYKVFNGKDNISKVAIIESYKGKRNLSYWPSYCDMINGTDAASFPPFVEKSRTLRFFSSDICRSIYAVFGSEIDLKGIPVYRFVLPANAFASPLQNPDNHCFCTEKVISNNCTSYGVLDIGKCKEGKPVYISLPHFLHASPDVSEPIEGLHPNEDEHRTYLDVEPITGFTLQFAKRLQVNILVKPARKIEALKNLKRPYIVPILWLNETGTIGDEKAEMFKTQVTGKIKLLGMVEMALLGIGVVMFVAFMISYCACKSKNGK

B1: AIM: apoptosis inhibitor of macrophage, secretory protein with three SRCR domains; recombinant mouse and human AIM in Example 2, mouse AIM in Examples 3-16 (protein)
chain: ESPTKVQLVGGAHRCEGRVEVEHNGQWGTVCDDGWDRRDVAVVCRELNCGAVIQTPRGASYQPPASEQRVLIQGVDCNGTEDTLAQCELNYYVFDCSHEEDAGAQCENPDSDLLFIPEDVRLVDGPGHCQGRVEVLHQSQWSTVCKAGWNLQVSKVVCRQLGCGRALLTYGSCNKNTQGKGPIWMGKMSCSGQEANLRSCLLSRLENNCTHGEDTWMECEDPFELKLVGGDTPCSGRLEVLHKGSWGSVCDDNWGEKEDQVVCKQLGCGKSLHPSPKTRKIYGPGAGRIWLDDVNCSGKEQSLEFCRHRLWGYHDCTHKEDVEVICTDFDV
For the molecule B1, the “binding of AIM to sites at which CD36 was expressed on the cells” value in series [1] is given as “had been bound to sites”. Besides, the “differentiation inhibitory effect by AIM” value in series [2] is reported as “reduced”. In addition, the “resistance to the apoptosis” value in series [3] is on record as “enhanced”. In series [4] (schedule (b): day 2 to day 12), the “expression of the C/EBPα gene” value is listed as “almost completely inhibited”, the “expression of the CD36 gene” value is on record as “almost completely inhibited”, the “expression of the FAS gene” value is “slightly increased” and the “expression of the Glut4 gene” value is “almost completely inhibited”. For the same molecule, the “expression of the PPARγ gene” value in series [4] (schedule (b): day 2 to day 12) is given as “almost completely inhibited”. For the same molecule, the “gene expression patterns compared with no AIM” value in series [4] (schedule (c): day -2 to day 2) is “not changed”. Also, the “expression of the FAS gene” value in series [4] (schedule (d): day 2 to day 4) is on record as “slightly increased”. In addition, in series [4] (setting [7]), the “expression of the C/EBPα gene” value is on record as “almost completely inhibited”, the “expression of the CD36 gene” value is “almost completely inhibited”, the “expression of the Glut4 gene” value is “almost completely inhibited” and the “expression of the PPARγ gene” value is “almost completely inhibited”. Further, the “gene expression patterns compared with no AIM” value in series [4] (schedule (e): day 6 to day 12) is listed as “not changed”. In series [5] (setting [8]), the “concentration of free fatty acid in the culture supernatant” value is reported as “remarkably increased” and the “concentration of glycerol in the culture supernatant” value is “remarkably increased”. Besides, the “diameter of lipid droplets contained in adipocytes, relative to schedule (a)” value in series [5] (mouse AIM, schedule (e): day 6 to day 12, schedule (a) without AIM defined as 100%) is listed as “about 25%”. Further, the “number of the cells having lipid droplets” value in series [5] (mouse AIM, schedule (e): day 6 to day 12 after differentiation, compared with schedule (a) without AIM) is listed as “remarkably decreased”. The “increase of the number of dead cells due to the loading of AIM” value in series [6] (3T3-L1 cells loaded with AIM) was “not observed”. Also, in series [6] (AIM continuously loaded day -2 to day 12, data not shown), the “differentiation of the 3T3-L1 cells to the mature adipocytes” value is given as “completely inhibited”. The “differentiation of the 3T3-L1 cells” value in series [6] (mouse or human rAIM 5 μg/mL, schedule (b): day 2 to day 12, stained day 12) is “almost completely inhibited”. Besides, the “differentiation of the 3T3-L1 cell” value in series [6] (mouse or human rAIM 5 μg/mL, schedule (d): early phase of differentiation induction only (day 2 to day 4), stained day 12) is reported as “almost completely inhibited”. Also, the “differentiation of the 3T3-L1 cells to the mature adipocytes” value in series [6] (schedule (c): AIM only before differentiation induction (day -2 to day 2)) was “not inhibited”.

B2: mouse AIM: protein consisting of the amino acid sequence shown in SEQ ID NO: 5; recombinant, purified from HEK293T culture supernatant (protein)
chain: MAPLFNLMLAILSIFVGSCFSESPTKVQLVGGAHRCEGRVEVEHNGQWGTVCDDGWDRRDVAVVCRELNCGAVIQTPRGASYQPPASEQRVLIQGVDCNGTEDTLAQCELNYYVFDCSHEEDAGAQCENPDSDLLFIPEDVRLVDGPGHCQGRVEVLHQSQWSTVCKAGWNLQVSKVVCRQLGCGRALLTYGSCNKNTQGKGPIWMGKMSCSGQEANLRSCLLSRLENNCTHGEDTWMECEDPFELKLVGGDTPCSGRLEVLHKGSWGSVCDDNWGEKEDQVVCKQLGCGKSLHPSPKTRKIYGPGAGRIWLDDVNCSGKEQSLEFCRHRLWGYHDCTHKEDVEVICTDFDV
modifications: mouse
notes: recombinant, purified from HEK293T culture supernatant
Regarding B2, the “lipolysis induction function in adipocytes derived from mice” value in series [5] (mouse AIM and human AIM compared, same range of concentrations in vitro) is “similarly exerted”. Further, the “differentiation of 3T3-L1 cells derived from mice / differentiation inhibitory function” value in series [6] (mouse AIM and human AIM compared, in vitro) is on record as “inhibited; also recorded: similarly exerted”.

The values are drawn from US8591913B2, “Methods of decreasing adipose tissue” (Toru Miyazaki, priority 2009, dated 2013).
